From patent US5871901

Legend:
[1] = tested on: DP-1/E2F-1 + orf 6/7 (in SL2 cells) (Mus musculus? / Homo sapiens? / adenovirus type 5); assay: cell_activity; conditions: enhancement by orf 6/7 over DP-1/E2F-1
[2] = target: DP-1/E2F-1 heterodimer (murine)

| Substance | activity [1] [fold] | transcriptional activity of the adenovirus E2a promoter (pE2a CAT reporter, SL2 cells) [2] [fold] |
| --- | --- | --- |
| E2a promoter (-96 to +68), two E2F sites | 2 | – |
| Ad5 orf 6/7 protein expressed from pE4 (complete Ad5 orf 6/7 cDNA) | – | 2 |
